The source of these data is patent US7919300B2, “Glucose isomerase mutants” (priority 2004, dated 2011).

Substrate in this data set: OC[C@H]1OC(O)[C@H](O)[C@@H](O)[C@@H]1O
Kind of data set: Measurement of kinetic parameters of glucose isomerase mutant MGI-4 with D-glucose as substrate. It counts as biochemical, Thermoanaerobacterium saccharolyticum. The following applies: pH 6.5, 20 mM sodium phosphate, 250 μM CoCl2, 5 mM MgCl2, 10 minutes. The method, then:
Fragment AFSR was amplified using primer pair 182AF (see Table 1 below) and 187SR (see Table 1) on the following condition: 20 mM Tris-HCl (pH 8.8), 10 mM KCl, 10 mM (NH4)2SO4, 2 mM MgSO4, 0.1% Triton X-100, 0.4 μM Primer 182AF and 0.4 μM Primer 187SR, 50 μM DATP, 50 μM dTTP, 50 μM dCTP, 50 μM dGTP, 1.5 U Pfu DNA polymerase, 20 ng pGEMT-TS, and the total volume was adjusted to 50 μl with distilled water. The PCR amplification program for the reaction was: 95° C., 3 min; then 35 cycles of 95° C., 50 seconds, 52° C., 30 seconds, 72° C., 180 seconds; and with an additional 5 minutes at 72° C. at the end of the reaction. The PCR product, fragment AFSR, was separated on 1% agarose gel and recovered using QIAquick Gel Extraction Kit (QIAGEN, German). Fragment SFQR was amplified using primer pair 187SF (Example 4) and 299QR (Example 5) on the following condition: 20 mM Tris-HCl (pH 8.8), 10 mM KCl, 10 mM (NH4)2SO4, 2 mM MgSO4, 0.1% Triton X-100, 0.4 μM Primer 187SF and 0.4 μM Primer 299QR, 50 μM dATP, 50 μM dTTP, 50 μM dCTP, 50 μM dGTP, 1.5 U Pfu DNA polymerase, 20 ng pGEMT-TS, and the total volume was adjusted to 50 μl with distilled water. The PCR amplification program for the reaction was: 95° C., 3 min; then 35 cycles of 95° C., 50 seconds, 52° C., 30 seconds, 72° C., 180 seconds; and with an additional 5 minutes at 72° C. at the end of the reaction. The PCR product, fragment SFQR, was separated on 1% agarose gel and recovered using QIAquick Gel Extraction Kit (QIAGEN, German). The full-length glucose isomerase gene was then amplified on the following condition: 20 mM Tris-HCl (pH 8.8), 10 mM KCl, 10 mM (NH4)2SO4, 2 mM MgSO4, 0.1% Triton X-100, 0.4 μM Primer T1 and 0.4 μM Primer T2, 50 μM dATP, 50 μM dTTP, 50 μM dCTP, 50 μM dGTP, 1.5 U Pfu DNA polymerase, 20 ng fragment T1FR (Example 2), 20 ng fragment FFAR (Example 6), 20 ng […], 20 ng fragment SFQR and 20 ng fragment QFT2 (Example 5), and the total volume was adjusted to 50 μl with distilled water. The PCR amplification program for the reaction was: 95° C., 3 min; then 35 cycles of 95° C., 50 seconds, 52° C., 30 seconds, 72° C., 180 seconds; and with an additional 5 minutes at 72° C. at the end of the reaction. The full-length mutant MGI-4 was separated on 1% agarose gel and recovered using QIAquick Gel Extraction Kit (QIAGEN, German). Plasmid pGEMT-MGI-4, generated after ligation between MGI-4 and pGEMT-Easy, was transformed into competent E. coli HB101 and the transformants were screened for clones of glucose isomerase activity on 1% MacConkey agar plates containing 1% D-xylose and 50 mg/L ampicillin. pGEMT-MGI-4 DNA was then isolated from the positive clones and sequenced. The sequencing results confirmed that the desired site-directed mutations were correctly introduced. Its amino acid sequence was shown as SEQ ID NO.: 32 (see the Sequence Listing below).
The isolation and purification of glucose isomerase mutant MGI-4 were as described in Example 9, except the plasmid used was pGEMT-MGI-4. The partially purified enzyme was shown on FIG. 1. Other glucose isomerase mutants were also isolated and purified as described in Example 9.

B1: Thermoanaerobacterium saccharolyticum glucose isomerase mutant MGI-4 (W139F/R182A/F187S/T299Q), SEQ ID NO.: 32 (Thermoanaerobacterium saccharolyticum; … (protein)
chain: MNKYFENVSKIKYEGPKSNNPYSFKFYNPEEVIDGKTMEEHLRFSIAYWHTFTADGTDQFGKATMQRPWNHYTDPMDIAKARVEAAFEFFDKINAPFFCFHDRDIAPEGDTLRETNKNLDTIVAMIKDYLKTSKTKVLFGTANLFSNPRFVHGASTSCNADVFAYSAAQVKKALEITKELGAENYVSWGGREGYETLLNTDMELELDNFARFLHMAVDYAKEIGFEGQFLIEPKPKEPTKHQYDFDVANVLAFLRKYDLDKYFKVNIEANHATLAFHDFQHELRYARINGVLGSIDANQGDMLLGWDTDQFPTDIRMTTLAMYEVIKMGGFDKGGLNFDAKVRRASFEPEDLFLGHIAGMDAFAKGFKVAYKLVKDGVFDKFIEERYASYKEGIGADIVSGKADFKSLEKYALEHSQIVNKSGRQELLESILNQYLFAE
A word on the Km: it is the substrate concentration at which the rate is half of its maximum. Broadly, the kcat is the maximal rate divided by the concentration of active sites. The term kcat/Km denotes the second-order rate constant that governs catalysis at low substrate concentration. As for B1, under “other: MGI-4, 65° C., 65.0 °C”, the Michaelis-Menten constant (Km) is reported as 27.9 mM, the kcat was 16.817 s⁻¹ and the kcat/Km was 602 M⁻¹ s⁻¹. Moreover, for the setting “other: MGI-4, 80° C., 80.0 °C”, the Km was 51.3 mM, the kcat turned out to be 49.685 s⁻¹ and the specificity constant (kcat/Km) turned out to be 968 M⁻¹ s⁻¹.
